This is an account of results in patent JP2018158894A (dated 2018).

For the assay, the target named is T1, ヒンジ領域組換えタンパク質 (LGR6 hinge region partial protein, amino acids 446-567, with Trx-, S- and His-tags) (Homo sapiens (Human), UniProt Q9HBX8 446-567).
T1 construct: Used as immunogen and as ELISA antigen; also called LGR6のヒンジ領域部分タンパク質; hinge region recombinant protein; not shown: N-terminal Trx-, S- and His-tag from the pET32b vector; C-terminal His-tag from the pET32b vector
T1 sequence: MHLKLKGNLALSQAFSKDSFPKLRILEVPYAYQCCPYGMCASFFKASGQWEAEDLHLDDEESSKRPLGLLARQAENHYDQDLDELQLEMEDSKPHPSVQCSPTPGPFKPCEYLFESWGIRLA
The assay is described as follows: Ag-ELISA, hybridoma culture supernatant on coated protein. A general note: An ELISA detects its analyte on a solid surface through an enzyme-linked reagent.

B1: m164抗体 (anti-LGR6 mouse monoclonal antibody produced by hybridoma clone 164) (antibody, V domains shown)
VH: EVQLQQSGPELVKPGASVKISCKTSGYTFTEYTMHWVKQSHGKSLEWIGGINPYNRVSSYNQRFKGKATLTVDKSSSTAYMELRSLTSEDSAVYYCARRYDVFDSWGQGTTLTVSS
VL: DIVMSQSPSSLAVSVGEKVSMSCKSSQSLLYSSNQKNYLAWYQQKPGQSPKLLISWASTRESGVPARFTGSGSGTDFTLTISSVRAEDLAVYYCQQHFNYPYTFGGGAKLEMK
notes: Tested as the mouse antibody from the hybridoma (culture supernatant or Protein G purified); the primers used were for mouse IgG1 CH and mouse kappa light chain; also called m164; LGR6抗体m164
As for B1, the binding result is given as “binds”.
